Data: IntAct's records for PubMed 17699623

B1: Protein BZR1 homolog 1 (Oryza sativa subsp. japonica (Rice)), Q7XI96 (parent)
chain: MTSGAAAAGRTPTWKERENNKRRERRRRAIAAKIFTGLRALGNYNLPKHCDNNEVLKALCREAGWVVEDDGTTYRKGCKPPPSSAGGASVGMSPCSSTQLLSAPSSSFPSPVPSYHASPASSSFPSPSRIDNPSASCLLPFLRGLPNLPPLRVSSSAPVTPPLSSPTASRPPKIRKPDWDVDPFRHPFFAVSAPASPTRGRRLEHPDTIPECDESDVSTVDSGRWISFQMATTAPTSPTYNLVNPGASTSNSMEIEGTAGRGGAEFEFDKGRVTPWEGERIHEVAAEELELTLGVGAK
partner: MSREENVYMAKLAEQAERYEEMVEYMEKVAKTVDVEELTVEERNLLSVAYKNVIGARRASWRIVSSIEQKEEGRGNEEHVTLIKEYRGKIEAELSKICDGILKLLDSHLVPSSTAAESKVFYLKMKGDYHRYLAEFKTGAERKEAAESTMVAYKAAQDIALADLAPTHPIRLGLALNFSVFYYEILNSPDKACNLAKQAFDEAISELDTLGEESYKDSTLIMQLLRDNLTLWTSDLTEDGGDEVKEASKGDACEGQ

Variants of: B1
Settings: with 14333_orysj GF14C

| Variant | effect of a mutation on the interaction |
| --- | --- |
| MTSGAAAAGRTPTWKERENNKRRERRRRAIAAKIFTGLRALGNYNLPKHCDNNEVLKALCREAGWVVEDDGTTYRKGCKPPPSSAGGASVGMSPCSSTQLLSAPSSSFPSPVPSYHASPASSSFPSPSRIDNPSASCLLPFLRGLPNLPPLRVSSGAPVTPPLSSPTASRPPKIRKPDWDVDPFRHPFFAVSAPASPTRGRRLEHPDTIPECDESDVSTVDSGRWISFQMATTAPTSPTYNLVNPGASTSNSMEIEGTAGRGGAEFEFDKGRVTPWEGERIHEVAAEELELTLGVGAK [S156G] | disrupting interaction |
